The data set deals with the molecule itself. Nature of the data set: crystal structure.

B1: SeMet-labeled V32M/L84M ORF8 double mutant (domain or fragment)
chain: QECSLQSCTQHQPYMVDDPCPIHFYSKWYIRVGARKSAPLIELCVDEAGSKSPIQYIDIGNYTVSCMPFTINCQEPKLGSLVVRCSFYEDFLEYHDVRVVLDFI
modifications: selenomethionine (SeMet-labeled)
notes: also called ORF8 V32M, L84M double-mutant; SeMet-labeled ORF8 double-mutant protein
Take B1: the binding result is recorded as “binds”.

Source of the values: PMC7812859, “Structure of SARS-CoV-2 ORF8, a rapidly evolving immune evasion protein” (Proceedings of the National Academy of Sciences of the …, 2020).
